Laboratory results: article PMC11024467 (2024)

B1: IL-2Rαβγ complex (complex)
chain 1: ELCDDDPPEIPHATFKAMAYKEGTMLNCECKRGFRRIKSGSLYMLCTGNSSHSSWDNQCQCTSSATRNTTKQVTPQPEEQKERKTTEMQSPMQPVDQASLPGHCREPPPWENEATERIYHFVVGQMVYYQCVQGYRALHRGPAESVCKMTHGKTRWTQPQLICTGEMETSQFPGEEKPQASPEGRPESETSCLVTTTDFQIQTEMAATMETSIFTTEYQ
chain 2: AVNGTSQFTCFYNSRANISCVWSQDGALQDTSCQVHAWPDRRRWNQTCELLPVSQASWACNLILGAPDSQKLTTVDIVTLRVLCREGVRWRVMAIQDFKPFENLRLMAPISLQVVHVETHRCNISWEISQASHYFERHLEFEARTLSPGHTWEEAPLLTLKQKQEWICLETLTPDTQYEFQVRVKPLQGEFTTWSPWSQPLAFRTKPAALGKDT
chain 3: LNTTILTPNGNEDTTADFFLTTMPTDSLSVSTLPLPEVQCFVFNVEYMNCTWNSSSEPQPTNLTLHYWYKNSDNDKVQKCSHYLFSEEITSGCQLQKKEIHLYQTFVVQLQDPREPRRQATQMLKLQNLVIPWAPENLTLHKLSESQLELNWNNRFLNHCLEHLVQYRTDWDHSWTEQSVDYRHKFSLPSVDGQKRYTFRVRSRFNPLCGSAQHWSEWSHPIHWGSNTSKENPFLFALEA
B2: IL-2Rβγ complex (complex)
chain 1: B1 chain 2
chain 2: B1 chain 3
B3: IL-2Rβ (receptor)
chain: B1 chain 2
B4: IL-2Rα (receptor)
chain: B1 chain 1
B5: IL-2Rαβγ complex (complex)
chain 1: ELCDDDPPEIPHATFKAMAYKEGTMLNCECKRGFRRIKSGSLYMLCTGNSSHSSWDNQCQCTSSATRNTTKQVTPQPEEQKERKTTEMQSPMQPVDQASLPGHCREPPPWENEATERIYHFVVGQMVYYQCVQGYRALHRGPAESVCKMTHGKTRWTQPQLICTGEMETSQFPGEEKPQASPEGRPESETSCLVTTTDFQIQTEMAATMETSIFTTEYQVAVAGCVFLLISVLLLSGLTWQRRQRKSRRTI
chain 2: AVNGTSQFTCFYNSRANISCVWSQDGALQDTSCQVHAWPDRRRWNQTCELLPVSQASWACNLILGAPDSQKLTTVDIVTLRVLCREGVRWRVMAIQDFKPFENLRLMAPISLQVVHVETHRCNISWEISQASHYFERHLEFEARTLSPGHTWEEAPLLTLKQKQEWICLETLTPDTQYEFQVRVKPLQGEFTTWSPWSQPLAFRTKPAALGKDTIPWLGHLLVGLSGAFGFIILVYLLINCRNTGPWLKKVLKCNTPDPSKFFSQLSSEHGGDVQKWLSSPFPSSSFSPGGLAPEISPLEVLERDKVTQLLLQQDKVPEPASLSSNHSLTSCFTNQGYFFFHLPDALEIEACQVYFTYDPYSEEDPDEGVAGAPTGSSPQPLQPLSGEDDAYCTFPSRDDLLLFSPSLLGGPSPPSTAPGGSGAGEERMPPSLQERVPRDWDPQPLGPPTPGVPDLVDFQPPPELVLREAGEEVPDAGPREGVSFPWSRPPGQGEFRALNARLPLNTDAYLSLQELQGQDPTHLV
chain 3: LNTTILTPNGNEDTTADFFLTTMPTDSLSVSTLPLPEVQCFVFNVEYMNCTWNSSSEPQPTNLTLHYWYKNSDNDKVQKCSHYLFSEEITSGCQLQKKEIHLYQTFVVQLQDPREPRRQATQMLKLQNLVIPWAPENLTLHKLSESQLELNWNNRFLNHCLEHLVQYRTDWDHSWTEQSVDYRHKFSLPSVDGQKRYTFRVRSRFNPLCGSAQHWSEWSHPIHWGSNTSKENPFLFALEAVVISVGSMGLIISLLCVYFWLERTMPRIPTLKNLEDLVTEYHGNFSAWSGVSKGLAESLQPDYSERLCLVSEIPPKGGALGEGPGASPCNQHSPYWAPPCYTLKPET
B6: IL-2Rβγ complex (complex)
chain 1: B5 chain 2
chain 2: B5 chain 3

The binders below were run against Wild type IL-2 (de-alanine-1, C58S, C125S) (UniProt P60568 21-153, de-alanine-1 | C58S | C125S) (assay: SPR).

Kd | Binder
42.3 pM | B1
463 pM | B2
89100 pM | B3
47500 pM | B4

Each binder was assayed against IL-2 variant 012 (assay: SPR).

Kd | Binder
575 pM | B5
467 pM | B6
